Residue numbers refer to the chain shown, from its start. Numbers in names are those of the source. Read-outs that look alike come from different tables or passages of the source.

For experiment [1], the target named is T1, human CD25 (recombinant soluble) (human, UniProt P01589 22-240).
T1 construct: extracellular domain; bought protein; also called IL2-Rα; recombinant human IL2-Rα
T1 sequence (looked up): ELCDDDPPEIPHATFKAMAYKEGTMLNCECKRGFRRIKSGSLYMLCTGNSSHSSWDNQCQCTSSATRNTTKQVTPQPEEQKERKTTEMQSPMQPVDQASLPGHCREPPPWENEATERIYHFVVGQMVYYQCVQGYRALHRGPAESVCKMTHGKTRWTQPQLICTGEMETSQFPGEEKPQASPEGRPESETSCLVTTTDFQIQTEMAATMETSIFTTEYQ
Nature of the experiment: competition ELISA on plate-coated CD25: competitor antibody titrated against biotinylated daclizumab, OD415. (In general: In an ELISA, binding on a coated surface is turned into a signal by an enzyme label.)

Experiment [2] addresses T1, human CD25 (recombinant soluble). The description is as above. This is another data set of the same source.
Experiment [3] concerns the target T2, CD25 (recombinant) (human, UniProt P01589 22-213, limits assumed).
T2 construct: bought protein; also called IL2-R alpha; IL2-Rα
T2 sequence (looked up): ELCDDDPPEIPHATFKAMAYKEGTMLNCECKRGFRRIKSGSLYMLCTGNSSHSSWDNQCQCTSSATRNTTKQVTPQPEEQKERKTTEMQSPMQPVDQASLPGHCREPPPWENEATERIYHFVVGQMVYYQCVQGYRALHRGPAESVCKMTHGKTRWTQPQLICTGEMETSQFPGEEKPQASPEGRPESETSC
Description: SPR (BIAcore). For orientation: SPR reads the build-up and loss of mass on a sensor chip optically.

Experiment [4] concerns the target T2, CD25 (recombinant). Description: ELISA, relative to wild type.
Experiment [5] deals with T3, recombinant human CD25 (IL2-Rα) (human, UniProt P01589 22-213, limits assumed).
T3 construct: Bought protein; also called recombinant human IL2-Rα; recombinant soluble human CD25
T3 sequence (looked up): T2 sequence (looked up)
Nature of the experiment: SPR (BIAcore), affinity benchmarked to DAC-HYP, n=3.
Description: Double referencing was applied in each analysis to eliminate background responses from reference surface and buffer only control (0 nM). […] Each set of experiments was performed three times to assess the standard deviation of the data.
Modified antibody proteins were tested for binding affinity using a surface plasmon resonance assay format in a BIAcore device. […] Recombinant soluble human CD25 was flowed over the sensor chip and changes in mass were detected. The data was interpreted to yield kₐ, kd and KD values for all the proteins tested.

Experiment [6] deals with T3, recombinant human CD25 (IL2-Rα). Description: SPR (BIAcore), antibody captured by anti-human Fc, soluble human CD25 as analyte, n=3.
Description: (§1) For this capture approach, 30 μg/ml of GAHFc was immobilized to achieve a high response unit (20,000 RU) on each flow cell on the Research-grade CMS sensor chip using the BIAcore amine coupling reagents (N-ethyl-N′-dimethylamino-propylcarbodiimide, EDC; N-hydroxysuccinimide, NHS; and ethanolamine HCl, pH 8.5). […] A 3 min association phase of CD25 was followed by a 15 min injection of HBS-P running buffer (10 mM HEPES, 150 mM sodium chloride, 0.005% P-20 surfactant, pH 7.4) to monitor dissociation for each binding cycle, with a different CD25 concentration per cycle. The surface was regenerated with 20 mM HCl at 100 μl/min flow rate at the end of each cycle. […] Double referencing was applied in each analysis to eliminate background responses from reference surface and buffer only control (0 nM). […] Each set of experiments was performed three times to assess the standard deviation of the data.
(§2) Modified antibody proteins were tested for binding affinity using a surface plasmon resonance assay format in a BIAcore device. […] Recombinant soluble human CD25 was flowed over the sensor chip and changes in mass were detected.
Experiment [7] has the same target. Nature of the experiment: direct-binding ELISA on plate-coated recombinant human IL2-Rα; EC50 benchmarked to DAC-HYP.
Description: MaxiSorp ELISA plates (Nunc Nalge International) were coated overnight at 4° C. with 100 μl/well of a 50 ng/ml solution of recombinant human IL2-Rα (R&D Systems or PeproTech, Inc., Rocky Hill, N.J.) in DPBS (Invitrogen Corporation), washed with Wash Buffer (PBS containing 0.1% Tween 20), and blocked for 30 min at room temperature with 200 μl/well of SuperBlock Blocking Buffer in TBS (Pierce Chemical Company). After washing with Wash Buffer, test antibodies (starting at 4 μg/ml and serially diluted 3-fold) in 100 μl/well of ELISA buffer (PBS containing 1% BSA and 0.1% Tween 20) were added in duplicate. After incubating the plates for 1 hr at room temperature, and washing with Wash Buffer, bound antibodies were detected using 100 μl/well of a 1:20,000 dilution of HRP-conjugated goat anti-human IgG (Southern Biotechnology Associates, Inc.) in ELISA buffer. After incubating for 1 hr at room temperature, and washing with Wash Buffer, color development was performed by adding 150 μl/well of TMB Peroxidase Substrate/Peroxidase Solution B (KPL, Inc.). After incubating for 8 min at room temperature, color development was stopped by adding 50 μl/well of 2 N sulfuric acid. Absorbance was read at 450 nm.
Experiment [8] has as its target T2, CD25 (recombinant). Nature of the experiment: ELISA, relative to wild type; * = similar to WT.
The target of experiment [9] is T3, recombinant human CD25 (IL2-Rα). Description: SPR (BIAcore), antibody captured by anti-human Fc, soluble human CD25 as analyte, n=3. This is another data set of the same source.
Description: as §1, §2
Another experiment deals with T4, cynomolgous CD25-HA (cynomolgous monkey, UniProt H6WS54 22-240).
T4 construct: also called cynomolgous monkey CD25; cmCD25; not shown: exact C-terminal limit of the PDL BioPharma construct
T4 sequence: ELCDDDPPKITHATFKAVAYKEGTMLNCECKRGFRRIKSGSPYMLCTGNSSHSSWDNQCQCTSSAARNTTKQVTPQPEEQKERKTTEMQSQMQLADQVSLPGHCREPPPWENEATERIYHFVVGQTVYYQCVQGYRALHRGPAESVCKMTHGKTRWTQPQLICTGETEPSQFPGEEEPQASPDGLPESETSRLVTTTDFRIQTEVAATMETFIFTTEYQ
Nature of the experiment: SPR (BIAcore), antibody captured by anti-human Fc, cynomolgous CD25-HA as analyte, n=3.

Description for cynomolgous CD25-HA: as §1, §2

B1: NuhuTacVH with daclizumabVL (antibody, V domains shown)
VH: EVQLVQSGAEVKKPGASVKVSCKASGYTFTSYRMHWVRQAPGQGLEWIGYINPSTGYTEYNQKFKDKATMTADKSISTAYMELSSLRSEDTAVYYCARGGGVFDYWGQGTLVTVSS
VL: DIQMTQSPSTLSASVGDRVTITCSASSSISYMHWYQQKPGKAPKLLIYTTSNLASGVPARFSGSGSGTEFTLTISSLQPDDFATYYCHQRSTYPLTFGQGTKVEVK
notes: combination antibody
What is called EC50 is the midpoint of the concentration-response curve. For the molecule B1, the EC50 in experiment [1] is 0.47 µg/mL.

B2: NuhuTac (antibody, V domains shown)
VH: B1 VH
VL: EIVLTQSPATLSLSPGERATLTCSASSSISYMHWFQQKPGQAPRLLIYTTSNLASGIPARFSGSGSGTDYTLTISSLEPEDFAVYYCHQRSTYPLTFGQGTKVEIK
notes: rehumanization of mouse anti-Tac on frameworks R3.5H5G (VH) and ka3d1 (VL); also called rehumanized anti-Tac; rehumanized antibody
Consider B2, for which the EC50 in [1] stood at 0.49 µg/mL; in experiment [2], 0.71 µg/mL.

B3: daclizumab variant S79 (antibody, IgG1, name in Kabat numbering, V domains shown)
VH: B1 VH with E1Q, A16S, M70I, I76T, S77N
VL: B1 VL
notes: IgG1; Kabat positions; also called E73K
As usually defined, the Kd is the concentration at which binding is half-saturated. With B3, in the experiment with CD25 (recombinant) [3], the Kd came out at 0.388 nM. Besides, in the experiment with CD25 (recombinant) [4], the “ELISA (wt = 1)” value was 1.5 fold (wt = 1).

B4: DAC I48V (antibody, IgG1, name in Kabat numbering, V domains shown)
VH: B1 VH with E1Q, A16S, I48V, M70I, K74E, I76T, S77N
VL: B1 VL
notes: E.HAT variant, IgG1/kappa
Usually koff stands for the rate constant with which the complex falls apart. Usually kon stands for the second-order rate constant of association. In the case of B4, the “Relative % KD” value in experiment [5] worked out at 100%. Also, in experiment [6], the Kd was 0.493 nM, the koff came to 0.000183 s⁻¹ and the kon came out at 371000 M⁻¹ s⁻¹. The “Relative % Potency” value in experiment [7] turned out to be 109%.

B5: DAC I48L (antibody, IgG1, name in Kabat numbering, V domains shown)
VH: B1 VH with E1Q, A16S, I48L, M70I, K74E, I76T, S77N
VL: B1 VL
notes: E.HAT variant, IgG1/kappa
As to B5, in [5], the “Relative % KD” value is 83%. Also, in [6], the Kd was determined as 0.597 nM, the koff is 0.000222 s⁻¹ and the kon was found to be 372000 M⁻¹ s⁻¹. Moreover, the “Relative % Potency” value in [7] was 132%.

B6: daclizumab variant S78 (antibody, IgG1, name in Kabat numbering, V domains shown)
VH: B1 VH with E1Q, A16S, I48V, M70I, K74E, I76T, S77N
VL: B1 VL
notes: IgG1; Kabat positions; also called I48V; DAC I48V
With B6, in the experiment with CD25 (recombinant) [3], the “Fold improvement (KD)” value was determined as 1 fold over wild type, the Kd was found to be 0.493 nM, the koff is 0.000183 s⁻¹ and the kon was 371000 M⁻¹ s⁻¹. In the experiment with CD25 (recombinant) [8], the “ELISA (wt = 1)” value was 1.1 fold (wt = 1).

B7: DAC I48M (antibody, IgG1, name in Kabat numbering, V domains shown)
VH: B1 VH with E1Q, A16S, I48M, M70I, K74E, I76T, S77N
VL: B1 VL
notes: E.HAT variant, IgG1/kappa
B7: the results for the Kd (in experiment [6]; in experiment [9]; with cynomolgous CD25-HA) were 0.375 nM, 0.357 nM and 0.371 nM, respectively.

B8: daclizumab VH and NuhuTacVL (antibody, V domains shown)
VH: B1 VH with E1Q, A16S, M70I, K74E, I76T, S77N
VL: B2 VL
notes: combination antibody
As for B8, the concentration for a half-maximal effect (EC50) in experiment [1] was determined as 1.18 µg/mL.

B9: daclizumab variant S76 (antibody, IgG1, name in Kabat numbering, V domains shown)
VH: B1 VH with E1Q, A16S, I48L, M70I, K74E, I76T, S77N
VL: B1 VL
notes: IgG1; Kabat positions; also called I48L; DAC I48L
With B9, in the experiment with CD25 (recombinant) [3], the “Fold improvement (KD)” value turned out to be 0.9 fold over wild type, the Kd came out at 0.597 nM, the koff amounted to 0.000222 s⁻¹ and the kon was found to be 372000 M⁻¹ s⁻¹. Besides, the “ELISA (wt = 1)” value with CD25 (recombinant) [8] was 1.32 fold (wt = 1).

The values above are taken from patent US20200308290A1 (AbbVie / Abbott, published 2020).
